From publication PMC5322571, “Selection of DNA Aptamers for Ovarian Cancer Biomarker CA125 Using One-Pot SELEX and High-Throughput Sequencing”

How the values were obtained:
Details in all cases: protein: commercial; label: 5' TEX615 (Texas Red) for FA; FAM for APCE; single strand
[1] = target: T1, CA125 (Cancer Antigen 125, mucin glycoprotein) (human, UniProt Q8WXI7 1-14451); test: affinity probe capillary electrophoresis; TGKM (1 mM Mg2+); FA: 100 nM aptamer heat cycled in TGKM (25 mM Tris, 192 mM glycine, 5 mM KH2PO4, 1 mM MgCl2, pH 8.3), CA125 0-2000 U/mL in PBS, 0.13 mg/mL BSA, 90 min RT, read
[2] = target: T1, CA125 (Cancer Antigen 125, mucin …); test: fluorescence anisotropy; heat cycled with Mg2+ (5 mM in Results; TGKM is 1 mM in Methods); FA: 100 nM aptamer heat cycled in TGKM (25 mM Tris, 192 mM glycine, 5 mM KH2PO4, 1 mM MgCl2, pH 8.3), CA125 0-2000 U/mL in PBS, 0.13 mg/mL BSA, 90 min RT, read
[3] = target: T1, CA125 (Cancer Antigen 125, mucin …); test: fluorescence anisotropy; FA: 100 nM aptamer heat cycled in TGKM (25 mM Tris, 192 mM glycine, 5 mM KH2PO4, 1 mM MgCl2, pH 8.3), CA125 0-2000 U/mL in PBS, 0.13 mg/mL BSA, 90 min RT, read
[4] = target: T1, CA125 (Cancer Antigen 125, mucin …); test: fluorescence anisotropy; heat cycled in PBS without Mg2+; FA: 100 nM aptamer heat cycled in TGKM (25 mM Tris, 192 mM glycine, 5 mM KH2PO4, 1 mM MgCl2, pH 8.3), CA125 0-2000 U/mL in PBS, 0.13 mg/mL BSA, 90 min RT, read
[5] = target: T1, CA125 (Cancer Antigen 125, mucin …); test: affinity probe capillary electrophoresis; heat cycled in TE without Mg2+; TGK run buffer; FA: 100 nM aptamer heat cycled in TGKM (25 mM Tris, 192 mM glycine, 5 mM KH2PO4, 1 mM MgCl2, pH 8.3), CA125 0-2000 U/mL in PBS, 0.13 mg/mL BSA, 90 min RT, read

ACTAGCTCCGATCTTTCTTATCTAC (ssDNA) [CA125_1 (CA125_1_NP, without primer regions)]
Kd [1]: 80 ± 38 U/mL
Kd [2]: 207 ± 109 U/mL

CACTCTTTCATTTTATTTATAATTAT (ssDNA) [CA125_2 (without primer regions)]
binding result [3]: no binding

TGCCTTATTACTCTCTCCTGTTAAC (ssDNA) [CA125_12 (CA125_12_NP, without primer regions)]
Kd [4]: 118 ± 123 U/mL
Kd [5]: 131 ± 93 U/mL

TTCAATATTACTTATCTTTTTTTTT (ssDNA) [CA125_3 (without primer regions)]
binding result [3]: no binding
